Experiment [1] deals with T1, recombinant human TLR4-MD2 protein (R&D Systems) (human, UniProt O00206 24-631; Q9Y6Y9 17-160).
T1 construct: range 24-631;range 17-160; Bought protein, described as a mixture of recombinant human TLR4 and MD2 proteins expressed in NS0 cells; also called recombinant-TLR4-MD2 protein; soluble recombinant TLR4-MD2
The experiment can be described thus: fluorescence polarization, 2 µM FITC-SPA4 with 0-5.6 µM TLR4-MD2, one-site fit, average Kd without blank subtraction; without blank subtraction. (In general: In fluorescence polarisation assays a small probe gives low polarisation when free and higher when bound to something large.)
Procedure: (§1) Experimental data were curve-fitted using Graphpad Prism program, and the binding affinity (Kd) was determined.
(§2) Lower values of the Kd indicate strong binding affinity.

In experiment [2] the target is T1, recombinant human TLR4-MD2 protein (R&D …). Briefly: fluorescence polarization, 2 µM FITC-SPA4 with 0-5.6 µM TLR4-MD2, one-site fit, average Kd with blank subtraction; with blank subtraction.
Procedure: as §1, §2
The target is the same in experiment [3]. Briefly: fluorescence polarization, 2 µM FITC-SPA4 peptide with increasing recombinant TLR4-MD2, one-site binding fit, one representative experiment.
Procedure: The background fluorescence polarization values were subtracted and plotted. The binding plot was then fitted into a one-site binding model using standard regression analysis and Kd values were noted. Results are from one representative experiment out of a total of three separate experiments performed at different times.
Regression analysis was carried out using the Graphpad Prism program (Graphpad software, La Zolla, Calif.). Experimental data were curve-fitted using Graphpad Prism program, and the binding affinity (Kd) was determined.

This passage reports Kd results from patent US20140256613A1 (BOARD OF REGENTS OF THE UNIVERSITY OF OKLAHOMA, published 2014).

Primed or numbered codes have the meaning given here. No end group written: not given here. FITC′ = fluorescein isothiocyanate; Ahx = NCCCCCC(=O)O

T1 sequence (O00206 other isoform, or with tags, fused parts or gaps limits assumed, form in doubt, chain 1 of 2): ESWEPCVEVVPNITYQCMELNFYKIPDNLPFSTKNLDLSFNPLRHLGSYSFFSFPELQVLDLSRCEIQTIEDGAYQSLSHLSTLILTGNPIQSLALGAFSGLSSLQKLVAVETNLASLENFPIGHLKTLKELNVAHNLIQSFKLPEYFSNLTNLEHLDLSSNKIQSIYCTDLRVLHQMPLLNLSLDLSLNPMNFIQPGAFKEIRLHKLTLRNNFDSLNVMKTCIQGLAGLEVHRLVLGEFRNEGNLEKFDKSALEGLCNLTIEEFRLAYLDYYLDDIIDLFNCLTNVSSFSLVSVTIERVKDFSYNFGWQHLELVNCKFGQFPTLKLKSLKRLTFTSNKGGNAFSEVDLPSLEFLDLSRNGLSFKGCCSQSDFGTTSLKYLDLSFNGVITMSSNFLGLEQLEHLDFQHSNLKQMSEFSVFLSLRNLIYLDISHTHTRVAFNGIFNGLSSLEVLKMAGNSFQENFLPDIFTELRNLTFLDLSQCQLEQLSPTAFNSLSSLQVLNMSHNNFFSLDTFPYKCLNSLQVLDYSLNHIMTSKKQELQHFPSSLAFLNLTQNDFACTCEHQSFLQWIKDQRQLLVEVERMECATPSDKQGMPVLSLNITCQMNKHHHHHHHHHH
T1 sequence (Q9Y6Y9 other isoform, or with tags, fused parts or gaps limits assumed, form in doubt, chain 2 of 2): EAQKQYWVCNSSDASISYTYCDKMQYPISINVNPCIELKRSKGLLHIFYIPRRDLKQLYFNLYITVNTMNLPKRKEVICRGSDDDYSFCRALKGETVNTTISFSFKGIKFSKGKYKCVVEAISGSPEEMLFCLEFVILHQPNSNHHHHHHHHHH

B1: FITC-SPA4 peptide (peptide)
peptide: {FITC′-Ahx}-GDFRYSDGTPVNYTNWYRGE
notes: also called fluorescein isothiocyanate conjugated SPA4 peptide
For B1, the Kd (commonly a measure of binding affinity in units of concentration) was 255 nM in experiment [1], 407 nM in experiment [2] and 314 nM in experiment [3].
